Positions count from the first letter of the chain named.
Key:
PBP1B E341A = target: T1, PBP1B E341A (E. coli, UniProt P02919 46-844, E341A); assay: SPR; PBP1B versions immobilised to the chip surface; LpoB injected from 19.5 nM to 10 μM; apparent KD by non-linear regression, at least three independent experiments; conditions: both partners purified
T1 construct: PBP1B, E. coli, residues 46-844, made by mutagenesis of pDML924; source: E. coli BL21(DE3), purified (membrane extract, HisTrap, thrombin, HiTrap SP ion exchange)
T1 sequence (looked up): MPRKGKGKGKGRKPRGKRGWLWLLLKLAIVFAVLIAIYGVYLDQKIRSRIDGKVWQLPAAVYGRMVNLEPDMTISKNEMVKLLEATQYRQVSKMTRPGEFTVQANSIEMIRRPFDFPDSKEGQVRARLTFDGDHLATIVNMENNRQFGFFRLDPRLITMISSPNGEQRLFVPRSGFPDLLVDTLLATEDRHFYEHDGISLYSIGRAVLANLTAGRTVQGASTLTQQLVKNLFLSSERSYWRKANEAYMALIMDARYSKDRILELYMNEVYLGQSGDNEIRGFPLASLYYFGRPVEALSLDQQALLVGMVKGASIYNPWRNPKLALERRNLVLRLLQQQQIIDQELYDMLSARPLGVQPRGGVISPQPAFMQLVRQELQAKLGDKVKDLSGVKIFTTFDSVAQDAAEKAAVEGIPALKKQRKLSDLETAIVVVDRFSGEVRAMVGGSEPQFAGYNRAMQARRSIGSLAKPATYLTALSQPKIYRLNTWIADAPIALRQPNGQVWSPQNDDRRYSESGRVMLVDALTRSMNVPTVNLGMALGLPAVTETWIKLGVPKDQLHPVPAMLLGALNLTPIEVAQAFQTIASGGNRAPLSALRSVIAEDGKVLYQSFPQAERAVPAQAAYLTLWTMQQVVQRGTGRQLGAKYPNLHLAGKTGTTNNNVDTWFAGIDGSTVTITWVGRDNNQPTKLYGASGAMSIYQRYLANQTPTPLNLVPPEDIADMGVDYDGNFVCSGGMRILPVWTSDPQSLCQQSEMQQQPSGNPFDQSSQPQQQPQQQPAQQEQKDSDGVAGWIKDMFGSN

[1] = target: T2, PBP1B (wild type, PBP1B^46-844) (E. coli, UniProt P02919 46-844); assay: cell-based or functional assay
T2 sequence (looked up): T1 sequence (looked up) with A296E

PBP1B K355A = target: T3, PBP1B K355A (E. coli, UniProt P02919 46-844, K355A); assay: cell-based or functional assay
T3 sequence (looked up): T1 sequence (looked up) with A296E, K310A

- Kd (PBP1B E341A): 273 nM
- GTase rate of WT PBP1B with LpoB relative to the basal rate of WT PBP1B (continuous fluorescence assay, dansylated lipid II; 0.5 μM PBP1B, 2 μM LpoB) [1]: 10.2 fold
- fold activation of the GTase rate of PBP1B K355A by LpoB (PBP1B K355A): ~37 fold
B1: LpoB (natural protein, E. coli)
chain: VGQREPAPVEEVKPAPEQPAEPQQPVPTVPSVPTIPQQPGPIEHEDQTAPPAPHIRHYDWNGAMQPMVSKMLGADGVTAGSVLLVDSVNNRTNGSLNAAEATETLRNALANNGKFTLVSAQQLSMAKQQLGLSPQDSLGTRSKAIGIARNVGAHYVLYSSASGNVNAPTLQMQLMLVQTGEIIWSGKGAVSQQ
notes: LpoB, E. coli; also called lipoprotein LpoB; source: E. coli BL21(DE3), purified (HisTrap, Superdex 200), as in Egan et al. 2014

Source: PMC6220978, “Induced conformational changes activate the peptidoglycan synthase PBP1B” (Molecular Microbiology, 2018)
